Laboratory results published in patent US20090117124A1 (Pfizer, published 2009).
Residue numbers refer to the chain shown, from its start. Numbers in names are those of the source. Blank lines part the entries; values can stand above or below the binder they belong to.

Assays:
[1] = molecular target: T1, cynomolgus monkey IgE (in cynomolgus serum, Harlan Sera-Lab Ltd) (cynomolgus monkey); assay: capture ELISA, Test 2, Cyno 7
T1 construct: Serum was the source of IgE; eight serum samples; also called cynomolgus IgE; Cyno 1 to Cyno 8 serum samples
Description: (§1) Wells were washed once with 150 μL/well wash buffer (0.05% Tween-20, Sigma, Cat. No. P7949/TBS) then blocked with 150 μL/well 1% BSA (Sigma, Cat. No. A7030) in TBS for 2 hours at room temperature. Wells were washed twice with 150 μL wash buffer. 50 μL human (in-house donors) or cynomolgus serum (Harlan Sera-Lab Ltd, Loughborough) was added from neat to at least 1:16 dilution in 1% BSA/0.05% Tween-20/TBS diluent buffer. […] Wells were incubated for 2 hours at 25° C. before washing (3×150 μL wash buffer). […] Wells were incubated for 1 hour at 25° C. then washed (3×150 μL wash buffer). Streptavidin-HRP (Amersham Bioscience, Cat. No. RPN 1231) diluted 1:1000 in diluent buffer was added to all wells and incubated for 45 minutes at room temperature. Wells were washed (3×150 […] wash buffer). 50 μL OPD (Dako, Cat. No. S2045) was added to all wells and the color allowed to develop for 10 minutes before stopping the reaction with 50 μl 0.6M H₂SO₄ and the absorbance measured at 490 nm.

[2] = molecular target: T1, cynomolgus monkey IgE (in cynomolgus …); assay: capture ELISA, Test 2, Cyno 6
Description: as §1

[3] = molecular target: T2, free IgE in human serum (healthy volunteers, in-house donors) (human, UniProt P01854-1 1-428); assay: serum free IgE depletion ELISA; DIN 0011 experiment 2
T2 construct: Kept apart from the bought myeloma IgE because it is native serum IgE of single donors; also called serum IgE
T2 sequence (P01854 other isoform, or with tags, fused parts or gaps): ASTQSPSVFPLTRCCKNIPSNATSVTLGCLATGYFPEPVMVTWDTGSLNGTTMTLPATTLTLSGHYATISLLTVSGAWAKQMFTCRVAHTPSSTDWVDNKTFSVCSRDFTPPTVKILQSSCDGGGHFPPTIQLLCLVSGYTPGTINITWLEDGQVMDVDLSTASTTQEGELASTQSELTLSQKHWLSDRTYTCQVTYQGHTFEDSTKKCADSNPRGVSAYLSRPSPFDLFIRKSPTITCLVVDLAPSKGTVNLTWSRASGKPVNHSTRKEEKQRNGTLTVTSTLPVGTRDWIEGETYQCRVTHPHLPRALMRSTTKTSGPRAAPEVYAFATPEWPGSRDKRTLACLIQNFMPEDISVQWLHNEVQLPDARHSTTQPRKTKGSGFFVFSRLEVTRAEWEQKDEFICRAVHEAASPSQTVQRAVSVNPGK
Description: (§2) The next day ELISA plates were washed 1× with 300 μL/well wash buffer (0.05% Tween-20, Sigma, Cat. No. P7949/TBS) then blocked with 150 μL/well 1% BSA (Sigma, Cat. No. A7030) in TBS for 1 hour at room temperature.

[4] = molecular target: T3, human IgE (Human myeloma, azide free, Serotec, Cat. No. PHP008X2) (human, UniProt P01854 1-546); assay: BIAcore 3000, antibody immobilised, full length human IgE injected
T3 construct: mature; Bought full length human myeloma IgE; in the BIAcore kinetics Serotec PHP008X2 or Europa Bioproducts CP1035K was used; also called full length human IgE; human immunoglobulin E
T3 sequence (P01854 whole entry): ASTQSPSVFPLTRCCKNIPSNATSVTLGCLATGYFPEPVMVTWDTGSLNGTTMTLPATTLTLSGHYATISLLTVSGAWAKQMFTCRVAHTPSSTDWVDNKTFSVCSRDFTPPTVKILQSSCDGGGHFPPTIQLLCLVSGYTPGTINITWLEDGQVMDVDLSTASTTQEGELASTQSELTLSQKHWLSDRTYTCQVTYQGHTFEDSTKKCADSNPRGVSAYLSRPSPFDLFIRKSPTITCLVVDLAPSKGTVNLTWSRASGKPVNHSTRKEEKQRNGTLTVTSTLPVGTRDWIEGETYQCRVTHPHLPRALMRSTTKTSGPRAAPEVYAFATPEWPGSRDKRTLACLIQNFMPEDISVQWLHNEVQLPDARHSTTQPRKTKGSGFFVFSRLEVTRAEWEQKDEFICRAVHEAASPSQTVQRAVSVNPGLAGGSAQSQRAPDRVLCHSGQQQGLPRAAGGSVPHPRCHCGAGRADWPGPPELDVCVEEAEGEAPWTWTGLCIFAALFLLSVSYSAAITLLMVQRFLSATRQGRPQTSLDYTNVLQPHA
Description: An immobilization binding response of 50-600 RU was obtained using CM5 sensor chips (BIAcore™) and 10 mM sodium acetate, pH 5.0 as immobilization buffer. The reference flow cell was activated (with EDC-NHS) and blocked (with ethanolamine) but no protein was immobilized. […] A regeneration step was included after the dissociation phase; the conditions used for the various antibodies are given in Table 17 below.
All sensorgrams were fitted locally using BIA evaluation software 4.1 (BIAcore™) and Scrubber software version 2.0 (BioLogic Software).

[5] = molecular target: T4, human IgG3 (Biodesign, Cat. No. A50186H) (human); assay: ELISA on coated immunoglobulin
T4 construct: Bought immunoglobulin coated on the plate
Description: (§3) Wells were washed 3× with 150 μL wash buffer (0.05% Tween-20 (Sigma, Cat. No. P7949)/PBS) then blocked with 150 μL/well blocking buffer (2.5% BSA (Sigma, Cat. No. A7030)/PBS) for 2 hours at room temperature. Wells were washed 3× with 150 μL wash buffer/well. […] Antibodies were diluted in diluent buffer (PBS/1% BSA/0.05% Tween-20) and this was added to blank control wells (duplicate wells for each secondary antibody used). Antibodies were incubated for 2 hours at room temperature. Wells were washed 3× with 150 μL wash buffer/well. Binding of control antibodies to immunoglobulin was detected with anti-mouse IgG-HRP conjugate (Sigma, Cat. No. A4416) diluted 1:8000 in diluent buffer. 50 μL/well was added to control antibody and blank wells. Wells were incubated for 1 hour at room temperature, then washed 3× with 150 μL wash buffer/well. 50 μl OPD (Dako, Cat. No. […] Wells were incubated for 1 hour at room temperature then washed 3× with 150 μL wash buffer/well. Streptavidin-HRP (Amersham Bioscience, Cat. No. RPN 1231) diluted 1:2000 in diluent buffer was added to all wells and incubated for 45 minutes at room temperature. Wells were washed (3×150 μL wash buffer).

[6] = molecular target: T5, human IgA (Sigma, Cat. No. I2636) (human); assay: ELISA on coated immunoglobulin
T5 chain: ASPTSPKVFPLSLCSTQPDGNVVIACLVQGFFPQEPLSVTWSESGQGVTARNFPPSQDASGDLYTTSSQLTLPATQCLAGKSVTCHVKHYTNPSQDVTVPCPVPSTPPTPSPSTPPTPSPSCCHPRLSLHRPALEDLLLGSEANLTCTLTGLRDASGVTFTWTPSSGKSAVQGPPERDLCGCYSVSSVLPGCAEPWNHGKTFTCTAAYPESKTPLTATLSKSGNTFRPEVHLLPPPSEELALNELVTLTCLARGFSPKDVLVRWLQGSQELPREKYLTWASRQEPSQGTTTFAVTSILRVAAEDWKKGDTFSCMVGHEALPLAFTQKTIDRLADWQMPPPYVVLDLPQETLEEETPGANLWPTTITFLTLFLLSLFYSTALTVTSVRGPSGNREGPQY
Description: as §3

[7] = molecular target: T3, human IgE (Human myeloma, azide free, …); assay: ELISA on coated immunoglobulin
Description: as §3

[8] = molecular target: T6, human IgG1 (Biodesign, Cat. No. A50183H) (human); assay: ELISA on coated immunoglobulin
T6 construct: Bought immunoglobulin coated on the plate
Description: as §3

[9] = molecular target: T1, cynomolgus monkey IgE (in cynomolgus …); assay: capture ELISA, Test 2, Cyno 4
Description: as §1

[10] = molecular target: T2, free IgE in human serum (healthy …); assay: serum free IgE depletion ELISA; DIN 0451 experiment 2
Description: as §2

[11] = molecular target: T2, free IgE in human serum (healthy …); assay: capture ELISA, Test 2, human serum
Description: as §1

[12] = molecular target: T1, cynomolgus monkey IgE (in cynomolgus …); assay: capture ELISA, Test 2, Cyno 3
Description: as §1

[13] = molecular target: T2, free IgE in human serum (healthy …); assay: serum free IgE depletion ELISA; DIN 0155
Description: as §2

IgE concentration detected [1]: 0 ng/mL | IgE concentration detected [2]: 62 ng/mL | IC25 ng/mL [3]: 6.34 µg/mL | Kd [4]: 1320 pM | koff [4]: 3.11e-05 s⁻¹ | kon [4]: 23600 M⁻¹ s⁻¹ | A290 nm [5]: 0.04 A290 nm | A290 nm [6]: 0.04 A290 nm | A290 nm [7]: 2.57 A290 nm | A290 nm [8]: 0.07 A290 nm | IgE concentration detected [9]: 38 ng/mL | IC25 ng/mL [10]: 39.7 µg/mL | IgE concentration detected [11]: 431 ng/mL | IgE concentration detected [12]: 309 ng/mL | IC25 ng/mL [13]: 1.81 µg/mL
B1: 5.948.1 (recombinant) (antibody, human IgG2, kappa, V domains shown)
VH: QVQLVQSGAEVKKPGASVKVSCKASGYTFTSYDINWVRQATGQGLEWMGWMDPNSGNTGYAQKFQGRVTMTRNTSISTAYMELSSLRSEDTAVYYCARGHYDSDGYYSFSGMDVWGQGTTVTVSS
VL: not shown
notes: Human IgG2 kappa; leader omitted; Two batches were tested in some assays; also called recombinant 5.948.1; 5.948.1 - Batch 1 (762.8 µg/mL)

IgE concentration detected [1]: 0 ng/mL | IgE concentration detected [2]: 39 ng/mL | IC25 ng/mL [3]: 2.96 µg/mL | Kd [4]: 159 pM | koff [4]: 2.42e-05 s⁻¹ | kon [4]: 151000 M⁻¹ s⁻¹ | A290 nm [5]: 0.06 A290 nm | A290 nm [6]: 0.05 A290 nm | A290 nm [7]: 1.05 A290 nm | A290 nm [8]: 0.06 A290 nm | IgE concentration detected [9]: 25 ng/mL | IC25 ng/mL [10]: 10.5 µg/mL | IgE concentration detected [11]: 408 ng/mL | IgE concentration detected [12]: 178 ng/mL | IC25 ng/mL [13]: 0.34 µg/mL
B2: 5.948.1 Hc-H100Y (antibody, human IgG2, kappa, V domains shown)
VH: B1 VH with H100Y
VL: not shown
notes: Human IgG2 kappa; leader omitted; also called 5.948.1 (H100Y); 5.948.1 H100Y
